The target of data set [1] is T1, 336(P4-P2)562 factor VIIIa mutant.
T1 chain 1: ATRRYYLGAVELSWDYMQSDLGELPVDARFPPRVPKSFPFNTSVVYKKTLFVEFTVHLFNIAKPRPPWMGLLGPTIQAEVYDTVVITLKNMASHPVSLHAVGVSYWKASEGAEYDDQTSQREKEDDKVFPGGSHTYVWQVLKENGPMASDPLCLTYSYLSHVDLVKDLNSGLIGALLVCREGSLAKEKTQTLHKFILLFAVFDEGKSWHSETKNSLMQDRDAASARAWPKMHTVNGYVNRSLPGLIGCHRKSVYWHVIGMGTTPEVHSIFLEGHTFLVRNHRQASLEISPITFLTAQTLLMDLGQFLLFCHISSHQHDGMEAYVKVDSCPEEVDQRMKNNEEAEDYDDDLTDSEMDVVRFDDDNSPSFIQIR
T1 chain 2: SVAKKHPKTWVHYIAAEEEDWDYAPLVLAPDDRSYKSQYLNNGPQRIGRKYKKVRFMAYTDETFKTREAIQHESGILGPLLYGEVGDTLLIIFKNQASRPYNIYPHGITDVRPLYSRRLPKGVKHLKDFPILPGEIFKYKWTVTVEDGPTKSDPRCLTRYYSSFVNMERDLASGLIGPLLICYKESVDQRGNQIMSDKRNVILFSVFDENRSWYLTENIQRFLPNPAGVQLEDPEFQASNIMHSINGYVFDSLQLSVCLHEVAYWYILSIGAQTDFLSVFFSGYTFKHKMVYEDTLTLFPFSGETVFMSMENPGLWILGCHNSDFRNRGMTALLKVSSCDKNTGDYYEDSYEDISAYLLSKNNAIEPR
T1 chain 3: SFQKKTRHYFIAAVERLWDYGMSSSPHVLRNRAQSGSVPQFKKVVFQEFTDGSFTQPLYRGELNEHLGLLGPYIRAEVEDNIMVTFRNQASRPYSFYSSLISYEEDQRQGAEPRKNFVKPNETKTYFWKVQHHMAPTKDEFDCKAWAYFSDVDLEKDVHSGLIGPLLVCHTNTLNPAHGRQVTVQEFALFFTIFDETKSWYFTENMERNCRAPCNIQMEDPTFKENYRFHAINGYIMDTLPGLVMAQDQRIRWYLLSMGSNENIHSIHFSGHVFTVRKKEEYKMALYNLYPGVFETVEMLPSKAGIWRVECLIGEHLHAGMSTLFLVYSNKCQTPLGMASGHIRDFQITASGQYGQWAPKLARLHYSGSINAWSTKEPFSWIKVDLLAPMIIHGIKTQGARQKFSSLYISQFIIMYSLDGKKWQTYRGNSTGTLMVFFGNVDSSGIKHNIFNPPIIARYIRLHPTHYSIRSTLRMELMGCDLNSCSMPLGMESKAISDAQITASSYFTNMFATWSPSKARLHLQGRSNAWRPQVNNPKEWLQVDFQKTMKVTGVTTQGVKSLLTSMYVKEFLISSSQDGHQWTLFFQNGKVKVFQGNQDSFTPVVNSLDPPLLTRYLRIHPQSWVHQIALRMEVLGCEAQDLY

Data set [2] has as its target T2, WT factor VIIIa (B-domainless recombinant human factor VIII activated by thrombin).
T2 chain 1: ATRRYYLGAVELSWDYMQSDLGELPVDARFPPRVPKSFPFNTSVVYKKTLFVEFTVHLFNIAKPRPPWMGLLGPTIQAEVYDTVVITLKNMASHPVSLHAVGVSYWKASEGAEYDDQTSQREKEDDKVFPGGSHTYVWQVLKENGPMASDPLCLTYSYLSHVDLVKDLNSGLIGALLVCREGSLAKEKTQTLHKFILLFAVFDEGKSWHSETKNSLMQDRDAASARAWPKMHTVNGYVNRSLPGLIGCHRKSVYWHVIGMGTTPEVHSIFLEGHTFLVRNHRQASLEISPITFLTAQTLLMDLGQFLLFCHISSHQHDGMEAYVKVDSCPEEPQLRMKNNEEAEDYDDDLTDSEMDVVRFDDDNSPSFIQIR
T2 chain 2: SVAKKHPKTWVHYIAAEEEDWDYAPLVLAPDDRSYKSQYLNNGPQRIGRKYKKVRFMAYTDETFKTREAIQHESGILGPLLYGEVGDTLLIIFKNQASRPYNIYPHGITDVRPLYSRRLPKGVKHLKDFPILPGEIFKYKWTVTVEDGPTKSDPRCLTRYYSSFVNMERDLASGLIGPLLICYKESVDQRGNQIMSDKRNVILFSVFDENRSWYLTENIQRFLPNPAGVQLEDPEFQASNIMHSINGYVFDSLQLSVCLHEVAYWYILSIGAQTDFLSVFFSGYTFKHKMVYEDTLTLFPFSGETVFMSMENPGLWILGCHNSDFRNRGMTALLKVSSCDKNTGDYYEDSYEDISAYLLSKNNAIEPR
T2 chain 3: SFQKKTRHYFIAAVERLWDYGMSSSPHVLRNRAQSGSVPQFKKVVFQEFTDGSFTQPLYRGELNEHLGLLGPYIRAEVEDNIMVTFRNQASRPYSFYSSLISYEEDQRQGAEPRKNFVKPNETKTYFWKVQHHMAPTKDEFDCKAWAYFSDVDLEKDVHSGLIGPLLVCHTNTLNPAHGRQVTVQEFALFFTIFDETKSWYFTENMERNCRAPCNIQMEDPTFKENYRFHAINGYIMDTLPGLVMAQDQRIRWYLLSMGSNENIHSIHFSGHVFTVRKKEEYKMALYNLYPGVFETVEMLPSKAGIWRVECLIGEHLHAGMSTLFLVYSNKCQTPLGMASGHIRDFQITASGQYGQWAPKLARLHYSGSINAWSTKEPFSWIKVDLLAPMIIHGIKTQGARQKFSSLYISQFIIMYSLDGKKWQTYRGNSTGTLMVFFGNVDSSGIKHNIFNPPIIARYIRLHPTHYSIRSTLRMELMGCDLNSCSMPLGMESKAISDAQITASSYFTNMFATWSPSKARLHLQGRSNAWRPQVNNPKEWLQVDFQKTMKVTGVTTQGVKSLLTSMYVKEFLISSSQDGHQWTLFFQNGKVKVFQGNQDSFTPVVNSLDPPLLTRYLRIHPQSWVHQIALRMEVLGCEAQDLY

The target of data set [3] is T3, WT factor VIII (B-domainless recombinant human factor VIII procofactor).
T3 chain 1: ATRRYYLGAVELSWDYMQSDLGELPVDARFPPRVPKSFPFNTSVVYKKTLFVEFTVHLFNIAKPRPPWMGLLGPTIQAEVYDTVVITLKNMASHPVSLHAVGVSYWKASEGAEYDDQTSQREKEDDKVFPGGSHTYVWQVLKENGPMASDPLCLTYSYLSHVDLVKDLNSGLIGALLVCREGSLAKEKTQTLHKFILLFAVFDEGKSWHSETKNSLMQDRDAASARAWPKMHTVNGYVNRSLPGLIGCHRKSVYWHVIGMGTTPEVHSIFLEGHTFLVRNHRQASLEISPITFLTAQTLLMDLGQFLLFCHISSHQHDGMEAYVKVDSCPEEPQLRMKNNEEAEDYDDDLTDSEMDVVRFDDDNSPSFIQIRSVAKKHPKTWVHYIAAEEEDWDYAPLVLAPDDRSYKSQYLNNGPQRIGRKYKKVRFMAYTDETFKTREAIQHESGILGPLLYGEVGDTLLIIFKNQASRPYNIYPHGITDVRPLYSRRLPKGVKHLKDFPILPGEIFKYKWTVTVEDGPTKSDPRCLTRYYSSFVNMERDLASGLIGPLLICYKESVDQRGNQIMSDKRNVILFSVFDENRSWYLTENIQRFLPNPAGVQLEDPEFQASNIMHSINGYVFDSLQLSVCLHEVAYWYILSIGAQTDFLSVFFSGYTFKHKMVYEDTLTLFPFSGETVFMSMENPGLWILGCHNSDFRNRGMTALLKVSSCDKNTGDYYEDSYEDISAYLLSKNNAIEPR
T3 chain 2: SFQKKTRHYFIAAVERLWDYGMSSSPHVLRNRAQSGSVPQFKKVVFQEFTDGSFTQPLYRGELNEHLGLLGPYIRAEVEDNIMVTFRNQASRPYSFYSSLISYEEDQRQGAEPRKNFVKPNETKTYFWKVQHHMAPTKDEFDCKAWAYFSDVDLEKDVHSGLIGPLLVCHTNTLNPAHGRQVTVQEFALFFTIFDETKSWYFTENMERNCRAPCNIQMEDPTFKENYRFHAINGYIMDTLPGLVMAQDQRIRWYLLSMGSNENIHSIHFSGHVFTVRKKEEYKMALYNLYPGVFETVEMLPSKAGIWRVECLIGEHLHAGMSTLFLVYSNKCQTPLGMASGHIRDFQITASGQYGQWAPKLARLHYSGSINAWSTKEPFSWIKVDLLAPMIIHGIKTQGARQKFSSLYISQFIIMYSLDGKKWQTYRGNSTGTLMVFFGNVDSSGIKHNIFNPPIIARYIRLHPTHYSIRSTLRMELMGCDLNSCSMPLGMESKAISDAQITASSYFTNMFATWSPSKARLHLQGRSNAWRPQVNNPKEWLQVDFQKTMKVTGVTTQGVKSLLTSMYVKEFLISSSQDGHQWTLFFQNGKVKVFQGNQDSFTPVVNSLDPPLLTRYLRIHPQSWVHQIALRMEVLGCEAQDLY

Values joined by “and” are separate entries in the source; they are usually repeats but may differ in a detail not shown here. Identical values can stand only once.

B1: human activated protein C (protein)
chain 1: ANSFLEELRHSSLERECIEEICDFEEAKEIFQNVDDTLAFWSKHVDGDQCLVLPLEHPCASLCCGHGTCIDGIGSFSCDCRSGWEGRFCQREVSFLNCSLDNGGCTHYCLEEVGWRRCSCAPGYKLGDDLLQCHPAVKFPCGRPWKRMEKKRSHL
chain 2: LIDGKMTRRGDSPWQVVLLDSKKKLACGAVLIHPSWVLTAAHCMDESKKLLVRLGEYDLRRWEKWELDLDIKEVFVHPNYSKSTTDNDIALLHLAQPATLSQTIVPICLPDSGLAERELNQAGQETLVTGWGYHSSREKEAKRNRTFVLNFIKIPVVPHNECSEVMSNMVSENMLCAGILGDRQDACEGDSGGPMVASFHGTWFLVGLVSWGEGCGLLHNYGVYTKVSRYLDWIHGHIRDKEAPQKSWAP
Take B1: the A1 Cleavage (nM A1/min/nM APC) (nM A1/min/nM APC) in data set [1] was 0.6; in data set [2], 8.5 and 9.5. Besides, the A2 Cleavage (nM A2/min/nM APC) (nM A2/min/nM APC) in data set [1] was 0.2; in data set [2], 0.5 and 0.2; in data set [3], 0.1. Moreover, the “fold reduction of cleavage rate at the A1 site compared with WT” value in data set [1] is “reduced ˜16 and ˜9-fold, respectively, as compared with the WT protein”.
